For experiment [1], the target named is T1, DNA repair endonuclease XPF (human, UniProt Q92889 1-916).
T1 construct: Endogenous protein of the human A549 cell line, inside fixed cells; also called encoded by the ERCC4 gene
T1 sequence: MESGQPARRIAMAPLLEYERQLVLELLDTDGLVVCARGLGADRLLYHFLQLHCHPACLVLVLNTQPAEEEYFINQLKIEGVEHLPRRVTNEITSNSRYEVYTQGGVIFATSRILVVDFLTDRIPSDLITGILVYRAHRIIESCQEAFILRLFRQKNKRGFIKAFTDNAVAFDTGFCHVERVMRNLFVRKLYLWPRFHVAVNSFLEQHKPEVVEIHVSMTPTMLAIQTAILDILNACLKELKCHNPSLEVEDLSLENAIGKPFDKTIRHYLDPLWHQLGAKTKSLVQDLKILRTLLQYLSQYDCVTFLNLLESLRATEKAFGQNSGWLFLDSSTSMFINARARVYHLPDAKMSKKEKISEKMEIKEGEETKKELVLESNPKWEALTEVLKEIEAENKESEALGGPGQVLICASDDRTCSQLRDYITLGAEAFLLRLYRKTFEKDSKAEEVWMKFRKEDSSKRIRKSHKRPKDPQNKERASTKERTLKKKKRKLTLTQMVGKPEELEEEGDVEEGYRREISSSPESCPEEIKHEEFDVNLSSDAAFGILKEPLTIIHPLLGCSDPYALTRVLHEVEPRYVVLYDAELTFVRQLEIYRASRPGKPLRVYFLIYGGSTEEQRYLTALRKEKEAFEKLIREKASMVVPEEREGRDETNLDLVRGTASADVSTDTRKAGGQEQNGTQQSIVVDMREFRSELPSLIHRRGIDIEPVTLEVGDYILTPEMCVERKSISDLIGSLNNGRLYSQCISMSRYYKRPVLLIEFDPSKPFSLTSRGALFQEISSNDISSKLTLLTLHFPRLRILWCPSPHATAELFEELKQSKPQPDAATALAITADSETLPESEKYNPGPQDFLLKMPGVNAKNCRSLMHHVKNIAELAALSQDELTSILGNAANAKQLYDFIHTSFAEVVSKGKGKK
Briefly: proximity ligation assay (Duolink) in ERCC1-deficient A549 cells re-expressing one isoform. As for the experimental part: (§1) Protein interactions were studied using the Duolink II proximity ligation assays (PLA) kit (Olink, Uppsala, Sweden). Coverslips were processed according to the manufacturer's instructions. In brief, the cells were fixed with methanol, permeabilized with triton, stained with the primary antibodies, and then incubated with the secondary oligonucleotide-linked antibodies. The oligonucleotides were hybridized, ligated, amplified, and detected using a fluorescent probe.
Using proximity ligation assays (PLA-Duolink) technology, we investigated the binding ability of ERCC1 isoforms with ERCC1 interacting proteins.

The target in experiment [2] is T2, protein TRF2 (telomeric repeat-binding factor 2) (human, UniProt Q15554 1-542).
T2 construct: Endogenous protein of the human A549 cell line, inside fixed cells; also called encoded by the TERF2 gene
T2 sequence: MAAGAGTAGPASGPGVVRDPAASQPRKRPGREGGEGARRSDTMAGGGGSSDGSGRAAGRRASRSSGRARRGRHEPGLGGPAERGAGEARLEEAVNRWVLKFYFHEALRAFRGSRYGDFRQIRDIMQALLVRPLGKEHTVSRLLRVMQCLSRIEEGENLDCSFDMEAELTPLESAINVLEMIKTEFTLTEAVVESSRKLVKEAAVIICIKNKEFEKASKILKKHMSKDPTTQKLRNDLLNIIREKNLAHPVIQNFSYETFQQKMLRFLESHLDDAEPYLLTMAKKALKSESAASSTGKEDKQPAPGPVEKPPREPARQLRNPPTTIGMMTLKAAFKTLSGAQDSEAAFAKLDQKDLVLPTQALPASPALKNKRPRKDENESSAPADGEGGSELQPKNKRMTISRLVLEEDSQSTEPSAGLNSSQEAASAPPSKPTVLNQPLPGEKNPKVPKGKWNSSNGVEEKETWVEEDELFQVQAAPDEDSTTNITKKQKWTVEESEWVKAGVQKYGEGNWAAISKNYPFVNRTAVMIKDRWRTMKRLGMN
The experiment can be described thus: proximity ligation assay (Duolink), ERCC1 detected with FL297 antibody. As for the experimental part: (§2) ERCC1 was detected using FL297 antibody.
as §1

Experiment [3] deals with T3, Fanconi anemia Group G protein FANC G (human, UniProt O15287 1-622).
T3 construct: Endogenous protein of the human A549 cell line, inside fixed cells; also called Fanconi anemia complementation group G
T3 sequence: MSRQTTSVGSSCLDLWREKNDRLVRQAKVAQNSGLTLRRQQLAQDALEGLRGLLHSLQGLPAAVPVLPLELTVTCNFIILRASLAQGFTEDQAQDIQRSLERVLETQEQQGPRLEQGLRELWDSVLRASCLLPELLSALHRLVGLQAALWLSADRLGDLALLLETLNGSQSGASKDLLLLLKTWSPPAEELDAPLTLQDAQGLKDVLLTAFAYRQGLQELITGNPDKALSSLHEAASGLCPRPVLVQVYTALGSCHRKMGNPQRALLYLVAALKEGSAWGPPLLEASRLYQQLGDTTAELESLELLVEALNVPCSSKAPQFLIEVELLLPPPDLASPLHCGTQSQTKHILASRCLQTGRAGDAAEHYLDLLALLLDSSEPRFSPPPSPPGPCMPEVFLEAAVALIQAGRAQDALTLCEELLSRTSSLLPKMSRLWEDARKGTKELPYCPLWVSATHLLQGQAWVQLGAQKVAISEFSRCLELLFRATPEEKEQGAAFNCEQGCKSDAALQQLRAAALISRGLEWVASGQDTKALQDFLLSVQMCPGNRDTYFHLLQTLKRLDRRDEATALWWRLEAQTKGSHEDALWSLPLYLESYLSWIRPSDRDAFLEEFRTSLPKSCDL
The description is as above. The method, then: as §2, §1

Experiment [4] has as its target T4, kinesin Eg5 (human, UniProt P52732 1-1056).
T4 construct: Endogenous protein of the human A549 cell line, inside fixed cells; also called encoded by the KIF11 gene
T4 sequence: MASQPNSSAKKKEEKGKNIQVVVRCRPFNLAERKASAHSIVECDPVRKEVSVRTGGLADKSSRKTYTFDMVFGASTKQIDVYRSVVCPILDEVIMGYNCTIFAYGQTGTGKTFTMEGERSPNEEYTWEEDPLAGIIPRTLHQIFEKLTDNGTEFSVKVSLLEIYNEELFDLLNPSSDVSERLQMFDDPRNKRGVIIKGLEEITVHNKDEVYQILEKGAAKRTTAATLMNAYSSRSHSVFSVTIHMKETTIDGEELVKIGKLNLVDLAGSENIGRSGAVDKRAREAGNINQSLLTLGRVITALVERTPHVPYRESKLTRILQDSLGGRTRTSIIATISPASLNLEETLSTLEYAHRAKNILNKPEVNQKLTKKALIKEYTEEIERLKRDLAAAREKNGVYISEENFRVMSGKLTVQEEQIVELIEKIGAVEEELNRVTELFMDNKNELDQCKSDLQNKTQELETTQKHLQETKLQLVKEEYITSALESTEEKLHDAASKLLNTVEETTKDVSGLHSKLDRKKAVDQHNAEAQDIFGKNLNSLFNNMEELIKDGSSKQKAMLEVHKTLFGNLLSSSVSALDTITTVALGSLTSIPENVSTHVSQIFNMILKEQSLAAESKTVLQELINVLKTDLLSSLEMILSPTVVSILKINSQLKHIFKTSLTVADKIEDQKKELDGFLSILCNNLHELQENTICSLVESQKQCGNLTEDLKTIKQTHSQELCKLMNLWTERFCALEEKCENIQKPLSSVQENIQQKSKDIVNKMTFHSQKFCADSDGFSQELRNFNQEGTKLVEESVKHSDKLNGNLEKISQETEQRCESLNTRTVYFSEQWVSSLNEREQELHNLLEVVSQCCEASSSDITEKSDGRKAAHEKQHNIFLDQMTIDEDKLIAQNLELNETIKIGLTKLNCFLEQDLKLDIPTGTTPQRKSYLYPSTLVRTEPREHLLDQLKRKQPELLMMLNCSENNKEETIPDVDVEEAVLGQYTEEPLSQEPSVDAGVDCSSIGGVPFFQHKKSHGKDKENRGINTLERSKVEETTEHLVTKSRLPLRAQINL
The description is as above. As for the experimental part: as §2, §1

B1: ERCC1-204 isoform (other)
chain: MDPGKDKEGVPQPSGPPARKKFVIPLDEDEVPPGVRGNPVLKFVRNVPWEFGDVIPDYVLGQSTCALFLSLRYHNLHPDYIHGRLQSLGKNFALRVLLVQVDVKDPQQALKELAKMCILADCTLILAWSPEEAGRYLETYKAYEQKPADLLMEKLEQDFVSRVTECLTTVKSVNKTDSQTLLTTFGSLEQLIAASREDLALCPGLGPQKARRLFDVLHEPFLKVP
notes: Re-expressed in ERCC1-deficient A549 clone 216; Detected inside fixed, permeabilised cells by PLA; also called isoform 204
On to B1, for which the binding result in experiment [1] is “no binding”.

B2: ERCC1-201 isoform (other)
chain: MDPGKDKEGVPQPSGPPARKKFVIPLDEDEVPPGVAKPLFRSTQSLPTVDTSAQAAPQTYAEYAISQPLEGAGATCPTGSEPLAGETPNQALKPGAKSNSIIVSPRQRGNPVLKFVRNVPWEFGDVIPDYVLGQSTCALFLSLRYHNLHPDYIHGRLQSLGKNFALRVLLVQVDVKDPQQALKELAKMCILADCTLILAWSPEEAGRYLETYKAYEQKPADLLMEKLEQDFVSRVTECLTTVKSVNKTDSQTLLTTFGSLEQLIAASREDLALCPGLGPQKVRALGKNPRSWGKERAPNKHNLRPQSFKVKKEPKTRHSGFRL
notes: Re-expressed in ERCC1-deficient A549 clone 216; Detected inside fixed, permeabilised cells by PLA; also called isoform 201
B2: the binding result in experiment [1] was “no binding”.

B3: ERCC1-202 isoform (isoform 202 of the ERCC1 protein) (other)
chain: MDPGKDKEGVPQPSGPPARKKFVIPLDEDEVPPGVAKPLFRSTQSLPTVDTSAQAAPQTYAEYAISQPLEGAGATCPTGSEPLAGETPNQALKPGAKSNSIIVSPRQRGNPVLKFVRNVPWEFGDVIPDYVLGQSTCALFLSLRYHNLHPDYIHGRLQSLGKNFALRVLLVQVDVKDPQQALKELAKMCILADCTLILAWSPEEAGRYLETYKAYEQKPADLLMEKLEQDFVSRVTECLTTVKSVNKTDSQTLLTTFGSLEQLIAASREDLALCPGLGPQKARRLFDVLHEPFLKVP
notes: Re-expressed in ERCC1-deficient A549 clone 216; Detected inside fixed, permeabilised cells by PLA, not on the cell surface
In the case of B3, the binding result in experiment [2], in experiment [3] and in experiment [4] was “binds” throughout.

B4: ERCC1-203 isoform (other)
chain: MDPGKDKEGVPQPSGPPARKKFVIPLDEDEVPPGVAKPLFRSTQSLPTVDTSAQAAPQTYAEYAISQPLEGAGATCPTGSEPLAGETPNQALKPGAKSNSIIVSPRQRGNPVLKFVRNVPWEFGDVIPDYVLGQSTCALFLSLRYHNLHPDYIHGRLQSLGKNFALRVLLVQVDVKDPQQALKELAKMCILADCTLILAWSPEEAGRYLETYKAYEQKPADLLMEKLEQDFVSRSLEQLIAASREDLALCPGLGPQKARRLFDVLHEPFLKVP
notes: Re-expressed in ERCC1-deficient A549 clone 216; Detected inside fixed, permeabilised cells by PLA; also called isoform 203
As for B4, in experiment [1], the binding result is on record as “no binding”.

The values are drawn from patent US20140120543A1 (INSTITUTE GUSTAVE ROUSSY, published 2014).
